In patent publication US20260083725A1, “SIGMARI LIGAND FOR THE TREATMENT OF PANCREATIC CANCER” (INSTITUT NATIONAL DE LA SANTÉ ET DE LA RECHERCHE MÉDICALE, priority 2022, published 2026):

System: SK2 channel
Test: Whole cell patch clamp recording of SK2 current in pancreatic cancer cells
Type: cell-based, human
Settings: cells treated without CAF-CM; EGF 25 ng/mL overnight
Procedure: Electrophysiological recordings in HEK293-T, PANC-1 and MiaPaCa-2 cells were performed in the whole cell configuration of the patch clamp technique at room temperature. Cells were bathed in a solution containing: 5 mM KCl, 145 mM NaCl, 1 mM MgCl2, 2 mM CaCl2, and 10 mM Hepes (pH adjusted to 7.4 with HCl, 300 mosm/L). Soft glass patch electrodes (Brand, Wertheim, Germany) were made on a horizontal pipette puller (P-97, Sutter Instrument Co., Novato, CA) to achieve a final resistance ranging from 3 to 5 MΩ. The internal solution was: 145 mM KCl, 1 mM MgCl2, 0.87 mM CaCl2, 1 mM EGTA, 10 mM Hepes, 1 mM ATP (pH adjusted to 7.2 with KOH, 308 mosm/L, pCa 6). Recordings were performed at room temperature in the voltage clamp mode using an PC-controlled EPC 9 patch-clamp amplifier (HEKA, Lambrecht/Pfalz, Germany). Currents were acquired and analyzed with Pulse and Pulsefit software (HEKA). Signal were filtered at 10 kHz and digitalized at 20 kHz. Currents were elicited by voltage ramps protocols (from −120 to +60 mV). Current density was measured at 0 mV. For the electrophysiological study of the SK2 mutations, HEK293-T were transfected with the different constructions and the HA-myr-AKT using calcium phosphate and recorded 24 h after transfection.

B1: EGF: EGFR ligand; growth factor applied to cells at 25 ng/mL (protein, UniProt P01133 23-1207, looked up)
Pro-epidermal growth factor: PQHWSCPEGTLAGNGNSTCVGPAPFLIFSHGNSIFRIDTEGTNYEQLVVDAGVSVIMDFHYNEKRIYWVDLERQLLQRVFLNGSRQERVCNIEKNVSGMAINWINEEVIWSNQQEGIITVTDMKGNNSHILLSALKYPANVAVDPVERFIFWSSEVAGSLYRADLDGVGVKALLETSEKITAVSLDVLDKRLFWIQYNREGSNSLICSCDYDGGSVHISKHPTQHNLFAMSLFGDRIFYSTWKMKTIWIANKHTGKDMVRINLHSSFVPLGELKVVHPLAQPKAEDDTWEPEQKLCKLRKGNCSSTVCGQDLQSHLCMCAEGYALSRDRKYCEDVNECAFWNHGCTLGCKNTPGSYYCTCPVGFVLLPDGKRCHQLVSCPRNVSECSHDCVLTSEGPLCFCPEGSVLERDGKTCSGCSSPDNGGCSQLCVPLSPVSWECDCFPGYDLQLDEKSCAASGPQPFLLFANSQDIRHMHFDGTDYGTLLSQQMGMVYALDHDPVENKIYFAHTALKWIERANMDGSQRERLIEEGVDVPEGLAVDWIGRRFYWTDRGKSLIGRSDLNGKRSKIITKENISQPRGIAVHPMAKRLFWTDTGINPRIESSSLQGLGRLVIASSDLIWPSGITIDFLTDKLYWCDAKQSVIEMANLDGSKRRRLTQNDVGHPFAVAVFEDYVWFSDWAMPSVMRVNKRTGKDRVRLQGSMLKPSSLVVVHPLAKPGADPCLYQNGGCEHICKKRLGTAWCSCREGFMKASDGKTCLALDGHQLLAGGEVDLKNQVTPLDILSKTRVSEDNITESQHMLVAEIMVSDQDDCAPVGCSMYARCISEGEDATCQCLKGFAGDGKLCSDIDECEMGVPVCPPASSKCINTEGGYVCRCSEGYQGDGIHCLDIDECQLGEHSCGENASCTNTEGGYTCMCAGRLSEPGLICPDSTPPPHLREDDHHYSVRNSDSECPLSHDGYCLHDGVCMYIEALDKYACNCVVGYIGERCQYRDLKWWELRHAGHGQQQKVIVVAVCVVVLVMLLLLSLWGAHYYRTQKLLSKNPKNPYEESSRDVRSRRPADTEDGMSSCPQPWFVVIKEHQDLKNGGQPVAGEDGQAADGSMQPTSWRQEPQLCGMGTEQGCWIPVSSDKGSCPQVMERSFHMPSYGTQTLEGGVEKPHSLLSANPLWQQRALDPPHQMELTQ
modifications: Pro-epidermal growth factor
notes: EGFR ligand; growth factor applied to cells at 25 ng/mL
Q: Which SK2 current does the source give for B1 here?
A: significant increase
